Test results reported in article PMC4421749.

Biological target: microtubules assembled from bovine brain tubulin (bovine) (UniProt Q6B856)
Test: co-sedimentation; 0.5 μM 4R-tau with increasing taxol-stabilized microtubules, 30 min at RT, BRB80-K (BRB80 + 50 mM KCl); 230,000 x g 15 min; tau in the pellet by densitometry of Coomassie gels; hyperbolic fit; apparent Kd

- Kd: 280 nM
Substance: 4R-tau (1N4R-tau), recombinant human tau containing four microtubule-binding sites (from UniProt P10636-7 1-412) (natural protein)
